Assay [1] has as its target H1 hemagglutinin (A/South Carolina/1/1918) (Influenza A virus A/South …, UniProt Q9WFX3 18-520). As to the kind of experiment: yeast surface display titration.
Assay [2] concerns the target H3 hemagglutinin (A/Hong Kong/1/1968) (Influenza A virus A/Hong Kong/1/1968 …, UniProt Q91MA7 27-521). As to the kind of experiment: yeast surface display titration.

Sequence of H1 hemagglutinin (A/South Carolina/1/1918) (Q9WFX3 18-520 limits assumed): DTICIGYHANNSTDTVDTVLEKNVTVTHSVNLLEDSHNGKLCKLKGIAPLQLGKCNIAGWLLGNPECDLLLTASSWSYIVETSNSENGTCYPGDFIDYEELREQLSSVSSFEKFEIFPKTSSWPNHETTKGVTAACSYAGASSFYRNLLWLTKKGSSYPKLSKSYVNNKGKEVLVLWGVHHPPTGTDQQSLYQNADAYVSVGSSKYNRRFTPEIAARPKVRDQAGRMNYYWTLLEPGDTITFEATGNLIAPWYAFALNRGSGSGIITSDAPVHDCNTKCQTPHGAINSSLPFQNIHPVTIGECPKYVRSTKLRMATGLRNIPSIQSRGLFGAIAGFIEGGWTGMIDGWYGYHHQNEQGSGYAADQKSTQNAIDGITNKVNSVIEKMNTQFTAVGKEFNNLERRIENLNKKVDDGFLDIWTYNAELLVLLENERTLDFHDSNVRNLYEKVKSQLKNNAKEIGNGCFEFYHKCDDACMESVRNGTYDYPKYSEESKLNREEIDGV
Sequence of H3 hemagglutinin (A/Hong Kong/1/1968) (Q91MA7 27-521 limits assumed): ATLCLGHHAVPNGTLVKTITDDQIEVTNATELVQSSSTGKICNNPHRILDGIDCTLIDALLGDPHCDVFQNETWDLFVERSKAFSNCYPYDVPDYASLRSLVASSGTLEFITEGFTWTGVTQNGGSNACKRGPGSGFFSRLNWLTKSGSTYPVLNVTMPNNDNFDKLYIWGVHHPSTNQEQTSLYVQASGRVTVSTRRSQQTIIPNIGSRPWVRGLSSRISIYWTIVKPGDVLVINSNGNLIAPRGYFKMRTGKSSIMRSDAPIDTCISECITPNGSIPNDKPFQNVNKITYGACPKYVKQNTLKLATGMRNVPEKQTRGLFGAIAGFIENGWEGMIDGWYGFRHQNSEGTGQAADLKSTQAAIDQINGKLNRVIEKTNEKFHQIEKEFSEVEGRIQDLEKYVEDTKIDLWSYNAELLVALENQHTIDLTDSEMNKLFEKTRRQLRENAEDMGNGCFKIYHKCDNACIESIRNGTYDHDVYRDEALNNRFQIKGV

B1: 52alt1-3 (designed binder)
chain: GIVNVPNPNTTKYQQLARSAIAIYNNHQNAHLEFVENLNVKEQVSYGAMYYITLAATDDAGKKKIYKAKVGVVESAGWVGVEEFKLV
In general, Kd refers to the equilibrium constant for the complex coming apart. A low value points to higher affinity. As for B1, the binding result in assay [1] is listed as “no binding”. This molecule registered a Kd in assay [2] of 3 nM.

(Values after patent publication US20150376238A1 (University of Washington, published 2015).)
